# In PMC11564547, “An interaction network of inner centriole proteins organised by POC1A-POC1B heterodimer crosslinks ensures centriolar integrity” (Nature Communications, 2024):
# B1: POC5^Δ153-184-TEV-2xFLAG (of the POC5^Δ153-184-Centrin2 complex from insect cells) (natural protein, human, UniProt Q8NA72 1-575, looked up)
# chain: MSSDEEKYSLPVVQNDSSRGSSVSSNLQEEYEELLHYAIVTPNIEPCASQSSHPKGELVPDVRISTIHDILHSQGNNSEVRETAIEVGKGCDFHISSHSKTDESSPVLSPRKPSHPVMDFFSSHLLADSSSPATNSSHTDAHEILVSDFLVSFIDWHRMEMRKEKEKHAAHLKQLCNQINELKELQKTFEISIGRKDEVISSLSHAIGKQKEKIELMRTFFHWRIGHVRARQDVYEGKLADQYYQRTLLKKVWKVWRSVVQKQWKDVVERACQARAEEVCIQISNDYEAKVAMLSGALENAKAEIQRMQHEKEHFEDSMKKAFMRGVCALNLEAMTIFQNRNDAGIDSTNNKKEEYGPGVQGKEHSAHLDPSAPPMPLPVTSPLLPSPPAAVGGASATAVPSAASMTSTRAASASSVHVPVSALGAGSAATAASEEMYVPRVVTSAQQKAGRTITARITGRCDFASKNRISSSLAIMGVSPPMSSVVVEKHHPVTVQTIPQATAAKYPRTIHPESSTSASRSLGTRSAHTQSLTSVHSIKVVD
# notes: made with deletion primers from the POC5-TEV-2xFLAG CEN2 construct; source: insect cells (MultiBac baculovirus), co-expressed with Centrin2, purified (anti-FLAG beads, 3xFLAG peptide elution, SEC); not shown: 2xFLAG (after a TEV site), C-terminal, kept
# B2: POC5-HA-TEV-2xFLAG (wild type POC5 of the POC5-Centrin2 complex from insect cells) (natural protein, human, UniProt Q8NA72 1-575, looked up)
# chain: MSSDEEKYSLPVVQNDSSRGSSVSSNLQEEYEELLHYAIVTPNIEPCASQSSHPKGELVPDVRISTIHDILHSQGNNSEVRETAIEVGKGCDFHISSHSKTDESSPVLSPRKPSHPVMDFFSSHLLADSSSPATNSSHTDAHEILVSDFLVSDENLQKMENVLDLWSSGLKTNIISELSKWRLNFIDWHRMEMRKEKEKHAAHLKQLCNQINELKELQKTFEISIGRKDEVISSLSHAIGKQKEKIELMRTFFHWRIGHVRARQDVYEGKLADQYYQRTLLKKVWKVWRSVVQKQWKDVVERACQARAEEVCIQISNDYEAKVAMLSGALENAKAEIQRMQHEKEHFEDSMKKAFMRGVCALNLEAMTIFQNRNDAGIDSTNNKKEEYGPGVQGKEHSAHLDPSAPPMPLPVTSPLLPSPPAAVGGASATAVPSAASMTSTRAASASSVHVPVSALGAGSAATAASEEMYVPRVVTSAQQKAGRTITARITGRCDFASKNRISSSLAIMGVSPPMSSVVVEKHHPVTVQTIPQATAAKYPRTIHPESSTSASRSLGTRSAHTQSLTSVHSIKVVD
# notes: POC5, human; cDNA from SinoBiological; No TEV cleavage is described; also called POC5-TEV-2xFLAG; full-length POC5; not shown: 2xFLAG (after a TEV site), C-terminal, kept
# B3: Centrin2 (natural protein, human, UniProt P41208 1-172, looked up)
# chain: MASNFKKANMASSSQRKRMSPKPELTEEQKQEIREAFDLFDADGTGTIDVKELKVAMRALGFEPKKEEIKKMISEIDKEGTGKMNFGDFLTVMTQKMSEKDTKEEILKAFKLFDDDETGKISFKNLKRVAKELGENLTDEELQEMIDEADRDGDGEVSEQEFLRIMKKTSLY
# notes: Centrin2 (CETN2), human; amplified and cloned into pACEBac1; also called CETN2; CEN2; source: Sf21 insect cells (MultiBac baculovirus), co-expressed with POC5-TEV-2xFLAG, co-purified (anti-FLAG beads, SEC)
# Columns and labels:
# [1] = biological target: the molecule itself; test: negative stain EM; purified POC5-Centrin2 complexes (co-expressed in insect cells, FLAG affinity and SEC); 3% uranyl acetate; 2D classification and low-resolution 3D reconstruction
# [2] = biological target: the molecule itself; test: mass photometry; purified POC5-Centrin2 complex (co-expressed in insect cells, FLAG affinity and SEC); 1 µl of 400 nM protein in 19 µl SEC buffer (50 mM Tris pH 7.5, 150 mM NaCl, 1 mM MgCl2); Refeyn TwoMP
# [3] = biological target: B2; test: as above; details: both partners purified
binder,measurement,setting,value
B1,stoichiometry N,[1],2
B2,stoichiometry N,[2],4
B3,stoichiometry N,[3],~6 Centrin2 molecules per POC5 tetramer
